6 molecules from paper doi:10.1101/2024.11.15.623645 (bioRxiv, 2024) can be followed below.

Holding throughout (assay): SPR
(In general: Surface plasmon resonance follows binding to a sensor surface in real time, without labels.)

The target of assay [1] is 2G12 IgG BCR complex (membrane IgG with Igα/Igβ) (human | human (endogenous in Ramos)) (UniProt P11912).
Assay [2] addresses 2G12 IgM BCR complex (membrane IgM with Igα/Igβ) (human | human (endogenous in Ramos)) (UniProt P11912).
Assay [3] concerns the target HIV-1 Env gp140 trimer CH505TF v4.1 (non-biotinylated) (HIV-1 clade C, CH505 transmitted/founder, UniProt M4M3Q1, stabilised).

Some results are limits rather than exact numbers.

“HIV-1 Env gp140 trimer BG505 GT1.2 (non-biotinylated)”: the association rate constant (kon) in assay [1] and in assay [2] was greater than 100000 M⁻¹ s⁻¹ in each case.

“HIV-1 Env gp140 trimer CAP256 (non-biotinylated)”: the kon in assay [1] and in assay [2] was greater than 100000 M⁻¹ s⁻¹ each time.

Consider “HIV-1 Env gp140 trimer CH505TF v4.1 (non-biotinylated)”, for which the kon in assay [1] and in assay [2] was greater than 100000 M⁻¹ s⁻¹ in each case.

In the case of “HIV-1 Env gp140 trimer CH848 (non-biotinylated)”, the kon in assay [1] and in assay [2] was greater than 100000 M⁻¹ s⁻¹ in each case.

“HIV-1 Env gp140 trimer JRFL (non-biotinylated)”: the on-rate constant (kon) in assay [1] and in assay [2] was greater than 100000 M⁻¹ s⁻¹ each time.

B1: 2G12 soluble IgG mAb (antibody, V domains shown)
VH: EVQLVESGGGLVKAGGSLILSCGVSNFRISAHTMNWVRRVPGGGLEWVASISTSSTYRDYADAVKGRFTVSRDDLEDFVYLQMHKMRVEDTAIYYCARKGSDRLSDNDPFDAWGPGTVVTVSP
VL: DVVMTQSPSTLSASVGDTITITCRASQSIETWLAWYQQKPGKAPKLLIYKASTLKTGVPSRFSGSGSGTEFTLTISGLQFDDFATYHCQHYAGYSATFGQGTRVEIK
In the case of B1, the binding result in assay [3] is recorded as “binds”.
